Target: Wtf4^antidote-mCherry (S. kambucha)
Test: FRET or BRET

## Wtf4^poison-GFP (natural protein)
  FRET (acceptor photobleaching): 40%
